The assay addresses monoclonal anti-H2a antibody of hybridoma clone B9 (ECACC provisional accession number 04030801). The assay can be described thus: competitive ELISA, B9 ascitic fluid preincubated overnight with free specific peptide, then added to the peptide-coated plate. In general terms: An ELISA detects its analyte on a solid surface through an enzyme-linked reagent.

The molecule CEKRRNATGEVA [H2 carboxyterminal peptide (SEQ ID NO. 1, …)] came in with a % inhibition of the reaction of 81%.
